How the values were obtained:
[1] = biological target: T1, CD163 D1-D5 (Homo sapiens, UniProt Q86VB7); test: SPR
T1 chain: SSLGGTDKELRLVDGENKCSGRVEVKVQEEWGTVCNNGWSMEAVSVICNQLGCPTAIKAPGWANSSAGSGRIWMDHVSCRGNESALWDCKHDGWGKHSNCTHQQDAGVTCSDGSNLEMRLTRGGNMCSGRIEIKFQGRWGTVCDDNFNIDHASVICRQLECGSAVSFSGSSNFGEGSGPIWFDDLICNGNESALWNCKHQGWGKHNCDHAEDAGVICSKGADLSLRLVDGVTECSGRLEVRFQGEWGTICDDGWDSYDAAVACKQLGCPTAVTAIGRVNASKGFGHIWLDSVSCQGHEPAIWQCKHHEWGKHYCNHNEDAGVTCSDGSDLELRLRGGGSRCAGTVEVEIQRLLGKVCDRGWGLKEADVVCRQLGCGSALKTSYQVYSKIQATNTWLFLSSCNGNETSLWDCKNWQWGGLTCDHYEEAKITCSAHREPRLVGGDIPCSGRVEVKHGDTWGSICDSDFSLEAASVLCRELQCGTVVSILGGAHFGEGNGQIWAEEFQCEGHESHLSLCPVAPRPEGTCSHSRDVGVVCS

[2] = biological target: CD163 42-1045 (Homo sapiens, UniProt Q86VB7); test: SPR

Kd [1]: ~684 nM | Kd [2]: ~72 nM
B1: Haptoglobin(1-1)-hemoglobin complex (protein)
chain 1: VDSGNDVTDIADDGCPKPPEIAHGYVEHSVRYQCKNYYKLRTEGDGVYTLNDKKQWINKAVGDKLPECEADDGCPKPPEIAHGYVEHSVRYQCKNYYKLRTEGDGVYTLNNEKQWINKAVGDKLPECEAVCGKPKNPANPVQRILGGHLDAKGSFPWQAKMVSHHNLTTGATLINEQWLLTTAKNLFLNHSENATAKDIAPTLTLYVGKKQLVEIEKVVLHPNYSQVDIGLIKLKQKVSVNERVMPICLPSKDYAEVGRVGYVSGWGRNANFKFTDHLKYVMLPVADQDQCIRHYEGSTVPEKKTPKSPVGVQPILNEHTFCAGMSKYQEDTCYGDAGSAFAVHDLEEDTWYATGILSFDKSCAVAEYGVYVKVTSIQDWVQKTIAEN
chain 2: not shown
chain 3: not shown
modifications: Ca2+ (5 mM CaCl2), biotinylated Hp(1-1) immobilized
